Measurements from patent US12673101B2, “Varicella zoster” (ADJUVANCE TECHNOLOGIES, INC., priority 2019, dated 2026).
Structures can show the parent of a compound that is named as a salt.

Experiments:
Format in all cases: in vivo, Varicella zoster virus
gE antigen [1] = assay: Mice immunized with gE, TQL-1055 choline salt with or without PHAD liposomes (Example 2): anti-gE IgG endpoint titers
Procedure: The impact of TQL-1055 choline salt (Compound I-4 choline salt) on antibody titers induced by gE antigen was tested. Mice were immunized with gE (5 mcg) alone, gE (5 mcg) with liposomes containing PHAD (5 mcg), gE (5 mcg) with liposomes containing PHAD (5 mcg) and TQL-1055 choline salt (five groups: 5 mcg, 10 mcg, 20 mcg, 40 mcg, 80 mcg), and gE (5 mcg) with TQL-1055 choline salt (five groups: 5 mcg, 10 mcg, 20 mcg, 40 mcg, 80 mcg). Mice were immunized at Day 0 and Day 14. Groups were bled at Day 13 (post Dose 1) and Day 28 (post Dose 2) for serum analysis.

gE antigen [2] = assay: Mice immunized with gE and liposomal adjuvant (Example 1): gE-specific total IgG1 titers
Procedure: (§1) The impact of TQL-1055 free acid (Compound I-4 free acid) on antibody titers induced by gE antigen was tested. Mice were immunized with gE (5 mcg) alone, gE (5 mcg) with blank liposomes, gE (5 mcg) with liposomes containing PHAD (7.5 mcg), gE (5 mcg) with liposomes containing PHAD (7.5 mcg) and TQL-1055 free acid (four groups: 5 mcg, 15 mcg, 30 mcg, 50 mcg), and gE (5 mcg) with liposomes containing MPL® (7.5 mcg) and QS-21 (5 mcg). Mice were immunized at Day 0 and Day 14. Groups were bled at Day 14 (post Dose 1) and Day 28 (post Dose 2) for serum analysis for anti-gE specific antibody response.
(§2) Log 10 transformed GMT were compared using One-way ANOVA. Groupwise comparisons were made and p-values adjusted for multiple comparisons with Tukey's post-hoc test. Groups 1 and 2 were excluded from the analysis. Family-wise α=0.05.

gE antigen [3] = assay: Mice immunized with gE and liposomal adjuvant (Example 1): gE-specific total IgG titers
Procedure: as §1, §2

gE antigen [4] = assay: Mice immunized with gE and liposomal adjuvant (Example 1): gE-specific total IgG2c titers; conditions: post dose 1, 50 mcg TQL-1055 free acid with PHAD liposomes
Procedure: as §1, §2

gE antigen [5] = assay: Mice immunized with gE, oil-in-water emulsion (L2), TQL-1055 and PHAD liposomes (Example 3): anti-gE IgG endpoint titers; conditions: mice immunized Day 0 and Day 14
Procedure: The impact of an oil-in-water emulsion containing TQL-1055 free acid (Compound I-4 free acid), TQL-1055 choline salt (Compound I-4 choline salt), PHAD liposomes, and combinations thereof on antibody titers induced by gE antigen was tested. Mice were immunized with PBS alone, gE (5 mcg) alone, gE (5 mcg) in an oil-in-water emulsion (L2), gE (5 mcg) and TQL-1055 choline salt (three groups: 5 mcg, 30 mcg, 100 mcg), gE (5 mcg) in an oil-in-water emulsion (L2) with TQL-1055 free acid (three groups: 5 mcg, 30 mcg, 100 mcg), gE (5 mcg) in an oil-in-water emulsion (L2) with TQL-1055 free acid (three groups: 5 mcg, 30 mcg, 100 mcg) and PHAD liposomes (20 mcg), and gE (5 mcg) with PHAD liposomes (20 mcg). Mice were immunized at Day 0 and Day 14. Groups were bled at Day 13 (post Dose 1) and Day 28 (post Dose 2) for serum analysis.

[6] = mice immunized Day 0 and Day 14, serum Day 28 (post Dose 2)

Molecule: CC1O[C@@H](OC2C(O)[C@@H](NC(=O)CCCCCCCCCCC(=O)O)C(CO)O[C@H]2OC(=O)[C@]23CCC(C)(C)CC2C2=CCC4C5(C)CC[C@H](O)C(C)(C=O)C5CCC4(C)[C@]2(C)CC3O)C(O)C(O)[C@H]1O[C@@H]1OC[C@@H](O)C(O)C1O (stereo partly shown) [TQL-1055 choline salt]
- titers compared to groups including TQL-1055 free acid (Example 1) (gE antigen [1]; after the first dose): trend to higher titers
- titers compared to groups including TQL-1055 free acid (Example 1) (gE antigen [1]; after the second dose): trend to higher titers

Molecule: CC1O[C@@H](OC2C(O)[C@@H](NC(=O)CCCCCCCCCCC(=O)O)C(CO)O[C@H]2OC(=O)[C@]23CCC(C)(C)CC2C2=CCC4C5(C)CC[C@H](O)C(C)(C=O)C5CCC4(C)[C@]2(C)CC3O)C(O)C(O)[C@H]1O[C@@H]1OC[C@@H](O)C(O)C1O (stereo partly shown) [TQL-1055 free acid]
- gE-specific IgG1 GMT compared to Group 7 (gE antigen [2]; mice, post dose 1, 50 mcg TQL-1055 free acid with PHAD liposomes): significantly higher
- gE-specific total IgG GMT compared to Group 7 (gE antigen [3]; mice, post dose 2, 50 mcg TQL-1055 free acid with PHAD liposomes, not statistically significant): trended higher
- gE-specific IgG2c GMT compared to Group 7 (gE antigen [4]): significantly higher

B1: 5 mcg gE alone: VZV glycoprotein E (gE) antigen, 5 mcg, without adjuvant (protein, UniProt P09259 31-623, looked up)
Envelope glycoprotein E: SVLRYDDFHTDEDKLDTNSVYEPYYHSDHAESSWVNRGESSRKAYDHNSPYIWPRNDYDGFLENAHEHHGVYNQGRGIDSGERLMQPTQMSAQEDLGDDTGIHVIPTLNGDDRHKIVNVDQRQYGDVFKGDLNPKPQGQRLIEVSVEENHPFTLRAPIQRIYGVRYTETWSFLPSLTCTGDAAPAIQHICLKHTTCFQDVVVDVDCAENTKEDQLAEISYRFQGKKEADQPWIVVNTSTLFDELELDPPEIEPGVLKVLRTEKQYLGVYIWNMRGSDGTSTYATFLVTWKGDEKTRNPTPAVTPQPRGAEFHMWNYHSHVFSVGDTFSLAMHLQYKIHEAPFDLLLEWLYVPIDPTCQPMRLYSTCLYHPNAPQCLSHMNSGCTFTSPHLAQRVASTVYQNCEHADNYTAYCLGISHMEPSFGLILHDGGTTLKFVDTPESLSGLYVFVVYFNGHVEAVAYTVVSTVDHFVNAIEERGFPPTAGQPPATTKPKEITPVNPGTSPLLRYAAWTGGLAAVVLLCLVIFLICTAKRMRVKAYRVDKSPYNQSMYYAGLPVDDFEDSESTDTEEEFGNAIGGSHGGSSYTVYIDKTR
- gE-specific total IgG1 titers post dose 2, GMT (gE antigen [2]; [6]): 793.1
- gE-specific total IgG titers post dose 1, Geometric mean (gE antigen [5]; serum Day 13 (post Dose 1)): 138.0
- gE-specific total IgG titers post dose 2, Geometric mean (gE antigen [5]; serum Day 28 (post Dose 2)): 5012
- Day 13 Anti-gE GMT titer, 5 mcg PHAD in liposomes (gE antigen [1]; Day 13 (post Dose 1), with 5 mcg PHAD in liposomes): 19,037
- Day 13 Anti-gE GMT titer, without PHAD liposomes (gE antigen [1]; Day 13 (post Dose 1), without PHAD liposomes): 135
- Day 28 Anti-gE GMT titer, 5 mcg PHAD in liposomes (gE antigen [1]; Day 28 (post Dose 2), with 5 mcg PHAD in liposomes): 689,865
- Day 28 Anti-gE GMT titer, without PHAD liposomes (gE antigen [1]; Day 28 (post Dose 2), without PHAD liposomes): 12,311
- gE-specific total IgG titers post dose 2, GMT (gE antigen [3]; [6]): 949.8
